From patent US20240425556A1, “MYOPEPTIDES AND METHODS OF USE IN TREATING HEART FAILURE” (University of Cincinnati, priority 2021, published 2024)

B1: recombinant C0-C2 protein (C0, C1 and C2 domains of cardiac myosin binding protein-C) with 6X his-tag (other)
chain: MPEPGKKPVSAFNKKPRSAEVTAGSAAVFEAETERSGVMVRWQRDGSDITANDKYGLAAEGKRHTLTVRDASPDDQGSYAVIAGSSKVKFDLKVTEPAPPEKAESEVAPGAPEEVPAPATELEESVSSPEGSVSVTQDGSAAEHQGAPDDPIGLFLMRPQDGEVTVGGSIVFSARVAGASLLKPPVVKWFKGKWVDLSSKVGQHLQLHDSYDRASKVYLFELHITDAQTTSAGGYRCEVSTKDKFDSCNFNLTVHEAIGSGDLDLRSAFRRTSLAGAGRRTSDSHEDAGTPDFSSLLKKRDSFRRDSKLEAPAEEDVWEILRQAPPSEYERIAFQHGVEACHRPLKRLKGMKQDEKKSTAFQKKLEPAYQVNKGHKIRLTVELADPDAEVKWLKNGQEIQMSGSKYIFESVGAKRTLTISQCSLADDAAYQCVVGGEKCSTELFVKEP
B11: recombinant S2^126 (proximal 126 amino acid sub-fragment 2 region of myosin) with 6X his-tag (other)
chain: PLLKSAETEKEMANMKEEFGRVKDALEKSEARRKELEEKMVSLLQEKNDLQLQVQAEQDNLNDAEERCDQLIKNKIQLEAKVKEMTERLEDEEEMNAELTAKKRKLEDECSELKKDIDDLELTLAK
notes: The position of the his-tag is unknown; also called mouse myosin S2; not shown: 6X his-tag

How the values were obtained:
S2^126-C0-C2 binding = target: T1, S2^126-C0-C2 binding (Homo sapiens, UniProt Q14896); assay: Solid phase binding assay (SPBA), competition for S2^126-C0-C2 binding; conditions: for ability to compete for S2^126-C0-C2 binding: SPBA, FIGS. 3A and 3B
T1 construct: 6X His; made in house; host or cells: E. coli BL21
T1 sequence (Q14896 1-451 limits assumed): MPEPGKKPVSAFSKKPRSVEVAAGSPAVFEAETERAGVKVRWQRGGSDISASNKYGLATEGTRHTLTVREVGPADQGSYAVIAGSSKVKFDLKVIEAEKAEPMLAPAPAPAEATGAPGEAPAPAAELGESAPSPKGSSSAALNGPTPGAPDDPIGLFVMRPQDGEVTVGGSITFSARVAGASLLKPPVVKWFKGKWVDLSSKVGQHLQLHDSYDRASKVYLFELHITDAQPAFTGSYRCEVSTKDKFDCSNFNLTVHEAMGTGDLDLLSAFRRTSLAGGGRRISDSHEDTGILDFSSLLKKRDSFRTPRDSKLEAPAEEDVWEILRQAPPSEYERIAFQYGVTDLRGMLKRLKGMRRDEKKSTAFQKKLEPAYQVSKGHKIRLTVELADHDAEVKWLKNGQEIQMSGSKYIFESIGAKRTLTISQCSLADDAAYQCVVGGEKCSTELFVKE
Description: Peptides of Table 1 were tested in vitro to determine whether they compete for binding in the interaction between S2^126 and the C0-C2 protein. In these experiments, recombinant S2^126 and C0-C2 protein with 6X his-tags were bacterially expressed in BL21 E. coli and then purified through Talon© metal affinity columns. A solid phase binding assay (SPBA) was then performed, whereby 20 μM of the C0-C2 protein was adsorbed onto wells of a 96-well microtiter plate. Then, 20 μM of S2^126, along with increasing concentrations of selected experimental peptides from Table 1, ranging from 0-20 μM, were added.
The following procedure identified the competitive nature of the tested experimental peptides from Table 1. […] The Alexa Fluor 568© secondary antibody (anti-rabbit) would then bind to the primary antibody to give a relative positive fluorescence of 1.0. Conversely, if the experimental peptide successfully competed with the S2^126-C0-C2 binding. then the S2^126 site would not be available for binding by the primary antibody. Therefore, the secondary antibody would also fail to bind, leading to a decrease in the relative fluorescence below 1.0. As a result, for a non-competing peptide, the relative fluorescence approaches 1.0, as observed by S2^126-C0-C2 binding. For a competing peptide, a decay in the relative fluorescence is observed. This SPBA assay was used to screen peptides for efficacy in disrupting the interaction between S2^126-C0-C2.

[1] = system: skinned papillary fibers from mouse hearts; assay: Maximal force (Fmax) of skinned papillary muscle fibers versus calcium concentration; conditions: for effect on muscle / contractile function: summary statement
Description: The ability of the experimental peptides to increase or otherwise affect contractility in the heart muscle system was tested using skinned papillary fibers from mouse hearts. In this ex vivo experiment, cardiac papillary fibers from mouse hearts were isolated and skinned overnight in 1% Triton X-100 low calcium buffer supplemented with ATP, creatine phosphate, and magnesium chloride. Because skinned muscle fibers are devoid of sarcolemma, nuclei, and sarcoplasmic reticulum, the fibers can only contract if supplemented with calcium, magnesium chloride, ATP, and creatine phosphate. This assay allows for the opportunity to screen for compounds or molecules that affect the contractility of the muscle.
Skinned papillary muscle fibers were cycled through buffers containing a constant concentration magnesium chloride, ATP, creatine phosphate, but increasing concentrations of calcium. As the muscle fiber goes from buffers containing low concentrations of calcium to buffers containing high concentrations of calcium, the force developed increases with increasing concentration. Thus, plotting the force produced versus calcium concentration provides a sigmoidal curve, yielding the maximal force produced (Fmax) and the midpoint calcium concentration where the force produced is exactly half of the force produced at high calcium concentration. This is useful for measuring the calcium sensitivity (pCa50) of the muscle fibers.
The experiment and measurement of Fmax, pCa50, and ktr was performed for a muscle in the absence of the experimental peptide and then in the presence of 10 μM and 20 μM of the experimental peptide.

[2] = target: B11; assay: ITC; 300 µM S2^126 titrated into 20 µM C0-C2
[3] = target: B1; assay: solid phase binding assay; peptide 0-20 µM against 20 µM S2^126 on adsorbed C0-C2
[4] = target: cardiac myosin binding protein-C (cMyBP-C) in skinned papillary muscle fibers from mouse hearts (mouse, UniProt O70468 1-1270); assay: cell-based or functional assay
[5] = target: B1; assay: solid phase binding assay; competition with S2^126 on adsorbed C0-C2
[6] = target: B1; assay: solid phase binding assay, competition: C0-C2 adsorbed on the plate, 20 µM S2^126 as competitor plus rising peptide; bound S2^126 detected with rabbit anti-S2^126 and Alexa Fluor 568 secondary antibody (Fluorescence Endpoint λ603, relative)
[7] = target: B1; assay: ITC; 300 µM S2^126 titrated into 20 µM C0-C2
C0-C2 protein = target: T2, C0-C2 protein (Homo sapiens, UniProt Q14896); assay: Isothermal titrating calorimetry (ITC); assay type: binding; conditions: 300 μM S2^126 titrated to 20 μM C0-C2 protein; read-out: dissociation constant (kd)
T2 construct: 6X His; made in house; host or cells: E. coli BL21
T2 sequence (Q14896 1-451 limits assumed): as above
Description: Isothermal titrating calorimetry (ITC) was used to validate and verify the results from the SPBA assays of Example 2. In ITC experiments, the heat of binding between two proteins is measured by titrating one protein with the other protein and then measuring the heat released or absorbed through a reference fluid with a constant temperature. By titrating 300 μM of S2^126 to 20 μM of C0-C2 protein, the stoichiometry (η) of 0.98 and dissociation constant (kd) of 4.7 μM for S2^126-C0-C2 binding were determined.
Using the above stoichiometry and dissociation constant values as controls, all of the experimental peptides were titrated at 300 μM with 20 μM of C0-C2 protein and compared with the above S2^126 control.

[8] = at 20 μM peptide, 20 μM S2^126, 20 μM C0-C2 adsorbed

Q: Which results are given for “CDQLIKNKIQLEAKVKEMTERLEDEEEMNAELTAKK (listed as Mus musculus) [Amg 23005]”?
A: ability to compete for S2^126-C0-C2 binding (S2^126-C0-C2 binding): effectively compete; relative fluorescence (S2^126-C0-C2 binding; [8]): 0; effect on muscle / contractile function [1]: successfully improved muscle function

Q: Which results are given for “VKEMTERLEDEEEMNAELTAKKRKLEDECSELKKDIDDLELTLAK (listed as Mus musculus) [Amg 23006]”?
A: ability to compete for S2^126-C0-C2 binding (S2^126-C0-C2 binding): effectively compete; relative fluorescence (S2^126-C0-C2 binding; [8]): 0; effect on muscle / contractile function [1]: successfully improved muscle function

Q: With “ETEKEMAMVSLLQAEERCDQDIDDLELTLAK [Amg 23050, scramble control peptide, reference compound]” as the molecule, how does the “ability to compete for S2^126-C0-C2 binding” value (shortened to “ability to compete”) (S2^126-C0-C2 binding) read?
A: The value was “unable to compete”.

Q: How did the “ability to compete” value (S2^126-C0-C2 binding) turn out when “RKELEEKMVSLLQEKNDLQLQVQAEQDNLNDAEERCDQLIKNK (listed as Mus musculus) [Amg 23004]” was run?
A: Its value is “unable to compete”.

Q: How did the “ability to compete” value (S2^126-C0-C2 binding) turn out when “PLLKSAETEKEMANMKEEFGRVKDALEKSEARRKELEEKM (listed as Mus musculus) [Amg 23003]” was run?
A: Its value is “unable to compete”.

Q: Which “ability to compete” value (S2^126-C0-C2 binding) does the source give for “VKEMTERLEDEEEMNAELTAKK (listed as Mus musculus) [Amg 27119]” here?
A: Its value is “effectively compete”.

Q: What about the relative fluorescence (S2^126-C0-C2 binding; at peptide concentrations above 15 μM) of the same molecule?
A: The relative fluorescence was 0.

Q: And the “increase of maximal force produced by the fibers” value ([1]; peptide 10 μM and 20 μM versus control, particularly at higher calcium concentrations)?
A: Its value is “about 30%”.

Q: And the “effect on muscle / contractile function” value [1]?
A: Its value is “highly effective in improving contractile function”.

Q: With B1 as the molecule, how does the Kd [2] read?
A: Its Kd is 4.7 µM.

B2: Amg 27120 (peptide)
peptide: ETEKEMAMVSLLQAE
Q: For B2, which relative fluorescence [3] is on record?
A: The relative fluorescence was ~1 relative fluorescence.

B3: Amg 27118 (peptide)
peptide: KLEDECSELKKDIDDLELTLAK
Q: With B3 as the molecule, how does the relative fluorescence [3] read?
A: The relative fluorescence was ~1 relative fluorescence.

B4: Amg 23004 (peptide)
peptide: RKELEEKMVSLLQEKNDLQLQVQAEQDNLNDAEERCDQLIKNK
Q: For B4, which relative fluorescence [3] is on record?
A: The relative fluorescence was ~1 relative fluorescence.

B5: Amg 23005 (peptide)
peptide: CDQLIKNKIQLEAKVKEMTERLEDEEEMNAELTAKK
Q: B5 was tested. Which “maximal force produced by skinned papillary muscle fibers (Fmax)” value (“maximal force produced … (Fmax)” below) [4] did it give?
A: Its value is 13%.

Q: And the “rate of force redevelopment (ktr) at pCa 5.7” value (“rate of force redevelopment” for short) [4]?
A: Its value is 1.5 fold.

Q: What about the stoichiometry [5] of the same molecule?
A: The stoichiometry was 1.

B6: Amg 27119 (mouse myosin S2 subset) (peptide)
peptide: VKEMTERLEDEEEMNAELTAKK
notes: also called myopeptide
Q: Which “IC50 (read off the curve)” value [6] does the source give for B6 here?
A: Its value is ~6 µM.

Q: What about the “maximal force produced … (Fmax)” value [4] of the same molecule?
A: Its value is ~30%.

Q: And the “rate of force redevelopment” value [4]?
A: The value was 2.5 fold.

B7: Amg 27117 (peptide)
peptide: DEEEMNAELTAKKR
Q: Which relative fluorescence [3] does the source give for B7 here?
A: The relative fluorescence was ~1 relative fluorescence.

B8: Amg 23006 (peptide)
peptide: VKEMTERLEDEEEMNAELTAKKRKLEDECSELKKDIDDLELTLAK
Q: B8 was tested. Which “maximal force produced … (Fmax)” value [4] did it give?
A: The value was 13%.

Q: And the “rate of force redevelopment” value [4]?
A: Its value is 1.5 fold.

Q: What about the stoichiometry [5] of the same molecule?
A: Its stoichiometry is 1.

B9: Scramble control Amg 25030 (peptide)
peptide: ETEKEMAMVSLLQAEERCDQDIDDLELTLAK
Q: With B9 as the molecule, how does the relative fluorescence [3] read?
A: Its relative fluorescence is ~1 relative fluorescence.

B10: Amg 23003 (peptide)
peptide: PLLKSAETEKEMANMKEEFGRVKDALEKSEARRKELEEKM
Q: For B10, which relative fluorescence [3] is on record?
A: Its relative fluorescence is ~1 relative fluorescence.

Q: For B11, which “stoichiometry (η)” value [7] is on record?
A: The value was 0.98.

B12: PLLKSAETEKEMANMKEEFGRVKDALEKSEARRKELEEKMVSLLQEKNDLQLQVQAEQDNLNDAEERCDQLIKNKIQLEAKVKEMTERLEDEEEMNAELTAKKRKLEDECSELKKDIDDLELTLAK (protein, listed as Mus musculus)
chain: PLLKSAETEKEMANMKEEFGRVKDALEKSEARRKELEEKMVSLLQEKNDLQLQVQAEQDNLNDAEERCDQLIKNKIQLEAKVKEMTERLEDEEEMNAELTAKKRKLEDECSELKKDIDDLELTLAK
modifications: 6X His tag
notes: recombinant proximal 126 amino acid fragment of myosin S2 with 6X his-tag, expressed in E. coli
Q: How did the Kd (C0-C2 protein) turn out when B12 was run?
A: The Kd was 4.7 µM.
